Assay results taken from patent US8936806B2, “Periostin induces proliferation of cardiomyocytes and promotes cardiac regeneration” (Children's Medical Center Corporation, priority 2007, dated 2015).

Legend:
[1] = Diffusion range and presence of recombinant periostin in myocardium after epicardial Gelfoam patch; format: in vivo, rat; details: after 12 weeks
Description: To develop a long-term delivery system for recombinant periostin, we determined if recombinant periostin associated with Gelfoam, a biodegradable biological scaffold. Gelfoam patches (Pfizer, New York, N.Y.) of 1 cm^2 diameter were loaded with 100 μg of recombinant human periostin and incubated with 1 mL of PBS at 37° C. with continuous agitation for 10 weeks. The supernatant was replaced every 2 weeks and the concentration of recombinant periostin in the supernatant was determined by Western blot using a polyclonal antibody directed against human periostin (Abeam). The diffusion range of recombinant periostin in myocardium was determined with a polyclonal antibody directed against human periostin followed by immunofluorescence microscopy. Presence of periostin in the myocardium was determined by Western blot using a polyclonal antibody directed against human periostin (Abeam).
Adult male Sprague-Dawley rats (300 gm, Charles River Laboratories) underwent experimental myocardial infarction as described (del Monte, F. et al. Abrogation of ventricular arrhythmias in a model of ischemia and reperfusion by targeting myocardial calcium cycling. Proc Natl Acad Sci USA 101, 5622-7 (2004)). The survival rate was 67%. Gelfoam loaded with 100 μg of recombinant periostin or with buffer were applied over the myocardial infarction at the time of surgery. […]

[2] = tested on: primary adult rat ventricular cardiomyocytes; experiment: Cytokinesis (aurora B kinase) in primary adult rat ventricular cardiomyocytes; format: cell-based
Text: Primary neonatal rat ventricular cardiomyocytes were isolated using the Neomyts kit (Cellutron, Highland Park, N.J.), seeded at a density of 10^5 cells/cm^2 onto gelatin-coated cover slips, stimulated for 3 days, and labeled with BrdU for the terminal 2 days. Primary adult ventricular cardiomyocytes were isolated from male (300 gm) Wistar rats (Charles River Laboratories) and maintained as described (Engel, F. B. et al. p38 MAP kinase inhibition enables proliferation of adult mammalian cardiomyocytes. Genes Dev 19, 1175-87 (2005)). Adult cardiomyocytes were stimulated daily for 9 days and labeled with 30 μM BrdU for the terminal 3 days. Cardiomyocytes were stimulated with periostin (500 ng/mL) and FGF (100 ng/mL). Inhibiting antibodies were added at a concentration of 10 μg/mL, cRGD at 10 μM, U0126 at 10 μM, PD98059 at 1 μM, LY294002 at 10 μM, and Wortmannin at 0.1 μM 30 min prior to stimulation. The vehicle used to dissolve factors or chemicals was added to unstimulated samples, which were then processed together with the test samples.
DNA-synthesis was analyzed by visualization of BrdU uptake and cytokinesis was determined by detection of the cleavage furrow and the midbody with an antibody against aurora B kinase as described (Engel, F. B. et al. p38 MAP kinase inhibition enables proliferation of adult mammalian cardiomyocytes. Genes Dev 19, 1175-87 (2005)). Signals were visualized with secondary antibodies conjugated to Alexa 488, Alexa 546, Alexa 594, and Alexa 647 (Invitrogen). Nuclei were visualized with 4′,6′-diamidino-2-phenylindole (DAPI, Invitrogen). For image acquisition, the value for γ was set at 1 and the lookup table settings were linear.

[3] = tested on: Adult male Sprague-Dawley rats; experiment: Cardiomyocyte cell cycle activity in vivo after intramyocardial injection; design: species or system rat; details: dispersed isolated cardiomyocytes
[4] = tested on: Adult male Sprague-Dawley rats; experiment: as above; design: species or system rat; LVFW CM nuclei: unit not given here
Description: Experiments were performed in accordance with institutional guidelines of Massachusetts General Hospital. Injections and analyses were performed in a blinded fashion. Adult male Sprague-Dawley rats (300 gm, Charles River Laboratories) underwent thoracotomy and received intramyocardial injections of 50 μg of recombinant human periostin consisting of the fas1-4 domains, 50 μg of rat fibronectin, or 100 μL of 100 mM sodium acetate as a control (5 rats per group). The survival rate for this procedure was 80%. Injected periostin was confirmed by detection with a polyclonal antibody directed against human periostin (Abcam) and visualized by immunofluorescence microscopy. Intraperitoneal injections of BrdU (70 μmol/kg body weight) with a tissue half life of 2 hr were given every 48 hr, and rats were sacrificed after the third injection. Horizontal cryosections of 14 μm thickness spaced at 1 mm intervals were analyzed by laser scanning immunofluorescence microscopy. BrdU-positive cardiomyocyte nuclei and cytokineses were quantified on 16-20 sections per heart. Fibrosis and cardiomyocyte cross-sectional area were determined on 5 Masson's Trichrome-stained sections at the level of the injection at 40× magnification and quantified using the Metamorph software package (Molecular Devices Corp., Downingtown, Pa.).

[5] = tested on: atrial natriuretic factor (ANF); experiment: Transcription of atrial natriuretic factor by RT-PCR in neonatal cardiomyocytes; format: cell-based, rat; details: 72 hr stimulation
Description: RNA was prepared using Trizol reagent (Invitrogen) from neonatal rat ventricular cardiomyocytes after 72 hr of stimulation. Complementary DNA was synthesized from 2 μg RNA with the SuperScriptIII kit (Invitrogen) using oligo-dT primers. One μL cDNA was used as template for 20 μL PCR-reactions (95° C. for 2 min, 30 cycles of 95° C. for 2 min, 55° C. for 2 min, 72° C. for 5 min, followed by 72° C. for 10 min). Oligonucleotide primers used for detection of ANF were F: 5′-[…]-3′ (Seq ID No. 2), R: 5′-[…]-3′ (Seq ID No. 3), β-actin were F: 5′-[…]-3′ (Seq ID No. 4), R: 5′-[…]-3′ (Seq ID No. 5), […] were F: 5′-[…]-3′ (Seq ID No. 6), R: 5′-[…]-3′ (Seq ID No. 7); SMA were F: 5′-[…]-3′ (Seq ID No. 8), R: 5′-[…]-3′ (Seq ID No. 9); SERCA2 were F: 5′-[…]-3′ (Seq ID No. 10), R: 5′-[…]-3′ (Seq ID No. 11), and for GAPDH: 5′-[…]-3′ (Seq ID No. 12), R: 5′-[…]-3′ (Seq ID No. 13).

[6] = 1 week after intracardiac injection

B1: periostin: Recombinant periostin, purified from HEK293 cells expressing the full-length human cDNA; secreted protein of 834 amino acids (Seq ID. No. 1) (protein, listed as Homo sapiens)
chain: MIPFLPMFSLLLLLIVNPINANNHYDKILAHSRIRGRDQGPNVCALQQILGTKKKYFSTCKNWYKKSICGQKTTVLYECCPGYMRMEGMKGCPAVLPIDHVYGTLGIVGATTTQRYSDASKLREEIEGKGSFTYFAPSNEAWDNLDSDIRRGLESNVNVELLNALHSHMINKRMLTKDLKNGMIIPSMYNNLGLFINHYPNGVVTVNCARIIHGNQIATNGVVHVIDRVLTQIGTSIQDFIEAEDDLSSFRAAAITSDILEALGRDGHFTLFAPTNEAFEKLPRGVLERFMGDKVASEALMKYHILNTLQCSESIMGGAVFETLEGNTIEIGCDGDSITVNGIKMVNKKDIVTNNGVIHLIDQVLIPDSAKQVIELAGKQQTTFTDLVAQLGLASALRPDGEYTLLAPVNNAFSDDTLSMVQRLLKLILQNHILKVKVGLNELYNGQILETIGGKQLRVFVYRTAVCIENSCMEKGSKQGRNGAIHIFREIIKPAEKSLHEKLKQDKRFSTFLSLLEAADLKELLTQPGDWTLFVPTNDAFKGMTSEEKEILIRDKNALQNIILYHLTPGVFIGKGFEPGVTNILKTTQGSKIFLKEVNDTLLVNELKSKESDIMTTNGVIHVVDKLLYPADTPVGNDQLLEILNKLIKYIQIKFVRGSTFKEIPVTVYTTKIITKVVEPKIKVIEGSLQPIIKTEGPTLTKVKIEGEPEFRLIKEGETITEVIHGEPIIKKYTKIIDGVPVEITEKETREERIITGPEIKYTRISTGGGETEETLKKLLQEEVTKVTKFIEGGDGHLFEDEEIKRLLQGDTPVRKLQANKKVQGSRRRLREGRSQ
presence of periostin in the left ventricle by immunoblotting [1]: confirmed presence | distance from the epicardium to the farthest diffusion range of periostin ([1]; epicardial Gelfoam patch): 461±62 | cytokinesis, of all differentiated cardiomyocytes ([2]; 9 days stimulation): 0.5±0.2% | BrdU-labeled nuclei in cardiomyocyte cytokineses ([2]; N=15): 100% | first detection of cytokinesis ([2]; time-course of stimulation): ≥ 6 days | H3P-positive mononucleated cardiomyocytes [3]: 2±0.2% | LVFW BrdU-positive CM nuclei [4, 6]: 0.051 ± 0.0021 % | LVFW CM nuclei [4, 6]: 10.3 ± 0.3 10^$$ per heart | LVFW cytokineses [4, 6]: 0.008±0.002% | LVFW BrdU-positive CM nuclei ([4]; 1 week after intracardiac injection, 3 BrdU injections): 5,322±363 per heart | LVFW BrdU-positive CM nuclei ([4]; 1 week after intracardiac injection, 3 BrdU injections, listed as PN): 5411 ± 376 per heart | LVFW myocardial volume ([4]; 1 week after intracardiac injection, 50 μg periostin (fas1-4 domains) or 50 μg rat fibronectin): 211.3 ± 12.3 mm^3 | LVFW cytokineses ([4]; 1 week after intracardiac injection, listed as Periostin): 821±176 per heart | fibrosis after intramyocardial injection ([4]; FIG. 4a): did not induce | hypertrophy (cardiomyocyte cross-sectional area) after intramyocardial injection ([4]; FIG. 4b): did not induce | H3P-positive binucleated cardiomyocytes ([4]; dispersed isolated cardiomyocytes, in vivo): 0.04±0.01% | DNA synthesis, of cardiomyocyte nuclei in the injected area ([4]; rat, in vivo): 0.7±0.1% | cytokinesis, of cardiomyocyte nuclei in the injected area ([4]; rat, in vivo): 0.1±0.03% | increase of DNA synthesis compared with buffer-injected hearts ([4]; rat, in vivo): 8 fold | increase of cytokinesis compared with buffer-injected hearts ([4]; rat, in vivo): 11.5 fold | transcription of atrial natriuretic factor (ANF) [5]: did not induce
